# Data: article PMC5017680, “treA Codifies for a Trehalase with Involvement in Xanthomonas citri subsp. citri Pathogenicity” (PLoS ONE, 2016)
# System: OC[C@H]1O[C@H](O[C@H]2O[C@H](CO)[C@@H](O)[C@H](O)[C@H]2O)[C@H](O)[C@@H](O)[C@@H]1O
# Experiment: purified protein
# Conditions: 25 °C, Glucose Liquiform kit solution, 0.03125-4 mM trehalose
substance,measurement,value
Xcc TreA (recombinant Xcc trehalase) (Xanthomonas citri subsp. citri 306),Km,77 µM
